Results published in article PMC6581707.

Experiments:
[1] = target: CS/DS 4-O-endosulfatase endoVB4SF from Vibrio sp. FC509 (Vibrio sp. FC509); test: SEC; Superdex 200 10/300 GL, 10 mM Tris-HCl, 100 mM NaCl, pH 8.0, with or without 5 mM DTT; detection at 280 nm; monomer to dimer
[2] = target: exoPB4SF-Q5C mutant (Photobacterium sp. FC615); test: as above

| stoichiometry N [1] | stoichiometry N [2] | Substance |
| --- | --- | --- |
| 2 | – | CS/DS 4-O-endosulfatase endoVB4SF from Vibrio sp. FC509 (enzyme) |
| – | 2 | exoPB4SF-Q5C mutant (enzyme) |
